In patent US9839671B2, “Peptide and uses therefor” (University of Birmingham, priority 2012, dated 2017):
Entries after “also recorded” stand apart in the source; their conditions may differ.

How the values were obtained:
[1] = system: transmigration of B cell depleted PBL / T cells / NK cells across TNF-α/IFN-γ stimulated endothelial cells; test: B cell dependence of adiponectin inhibition (B cell depletion, B cell supernatants, Brefeldin A, NK cells); type: cell-based, human; details: for effect of B cell supernatants prepared in the presence of Brefeldin A: inhibitor of B cell secretion; for adiponectin inhibition of migration after removal of B cells from PBL: adiponectin 15 μg/ml, B cell depleted PBL
Procedure: B cells were isolated and incubated in presence or absence of adiponectin at 15 μg/ml. […] For some experiments, B cells were treated with Brefeldin A, an inhibitor of B cell secretion. […] This is shown in FIG. 8, where the data is shown as mean±SEM and is representative of three independent experiments analysed using one-way ANOVA and Bonferroni's multiple comparison post test. ***p<0.001, ns=non-significant.
Refer to FIG. 14. Endothelial cells were cultured in low serum medium and stimulated with TNF-α/IFN-γ for 24 hours in the absence of adiponectin. PBL transmigration was measured after removal of B cells using bead positive selection and after reconstitution with B cells that were isolated using bead negative selection in presence or absence of adiponectin (15 μg/ml). Supernatants from adiponectin-treated B cells or B cell treated with Brefeldin A to block protein secretion were added to PBL.

[2] = system: PBL or B cell depleted PBL transmigration across IFN-γ/TNF-α treated HUVEC; test: S1P signalling in PBL transmigration across HUVEC; type: cell-based, human
Procedure: Refer to FIG. 19. […]. Levels of SPHK1 and SPHK2 mRNA expression determined by real-time PCR of RNA from B cells and HUVEC (part D, n=2). PBL transmigration was measured across IFN-γ/TNF-α treated HUVEC pre-treated with SPHK1 specific inhibitor (5 μM) in presence of […] (10 ng/ml) (part E).

[3] = system: lymphocyte integrin LFA-1 (CD11a/CD18; αLβ2); test: LFA-1 affinity sites on memory T cells immobilised on ICAM, activated with IP-10; type: cell-based; details: IP-10 10 ng/ml, S1P 10 μM, 30 minutes
Procedure: Refer to FIG. 20. 96 well plates were coated with 50 μg/ml of recombinant ICAM overnight at 4° C. The plate was blocked using PBS 4% BSA for an hour at room temperature and PBL treated with IP-10 (10 ng/ml) and/or S1P (10 μM) were added for 30 minutes. Excess of unbound PBL was washed and PBL were labelled for the intermediate affinity site of the lymphocyte integrin LFA-1 (CD11a/CD18; αLβ2) using the KIM127 antibody (10 ug/ml) and for the high affinity site using antibody 24 (10 ug/ml) at 4° C. The expression of both affinity site was measured on memory T cells using mean fluorescence intensity (MFI). […] Data is a pool of two independent experiments.

[4] = system: transmigration of peripheral blood lymphocytes (PBL) across TNF-α/IFN-γ stimulated endothelial cells; test: PBL transendothelial migration, static adhesion (transwell) assay; type: cell-based, human; details: for PBL transmigration: static assay, adiponectin 0.0001-15 μg/ml, peptide 0.001-10 ng/ml, control peptides 10 ng/ml
[5] = system: PBL from T1D patients across TNF-α/IFN-γ stimulated endothelial cells; test: Transmigration of PBL from type 1 diabetes patients; details: adiponectin 15 μg/ml one hour or exogenous PEPITEM
Procedure: Endothelial cells were cultured in low serum medium and stimulated with TNF-α/IFN-γ for 24 hours in absence of adiponectin. […] Data was analysed using t-test and one-way ANOVA and Bonferonni's multiple comparisons post-test. ***p≦1.0001.
Endothelial cells were cultured in low serum medium and stimulated with TNF-α/IFN-γ for 24 hours in the absence of adiponectin. […] Data was analysed using t-test **p<0.01.

[6] = system: PBL migration across TNF-α/IFN-γ stimulated endothelial cells under flow; test: PBL migration, flow based adhesion assay; type: cell-based, human; details: adiponectin 15 μg/ml
Procedure: We have been interested in the ability of the adipocyte derived cytokine, adiponectin, to regulate the recruitment of human T cells to inflamed endothelium. […] In our in vitro studies we used static transwell assays, as well as flow based adhesion assays, to track the migration of T cells (which were in crude isolates of peripheral blood lymphocytes [PBL]) across TNF-α and IFN-γ stimulated endothelial cells.
Endothelial cells were cultured in low serum medium and stimulated with TNF-α/IFN-γ for 24 hours in the absence of adiponectin. PBL were isolated and treated with adiponectin at 0.0001 to 15 μg/ml for one hour.
Refer to FIG. 13. Endothelial cells were cultured in low serum medium and stimulated with TNF-α/IFN-γ for 24 hours in the absence of adiponectin. PBL were isolated and treated with adiponectin at 0.0001 to 15 μg/ml for one hour. […] In part (D), compound C, an AMP-kinase inhibitor, was added to PBL at 10 μg/ml for 30 minutes prior to addition of adiponectin at 15 μg/ml for 1 hour. AMPK is a signalling adapter that is required for adiponectin-receptor signalling. […] Data is a pool of at least three independent experiments and were analysed using t-test, one-way ANOVA and Dunnett's multiple comparisons post-test. **[…], ***[…].

C[C@H]1CCC/C=C/[C@@H]2C[C@H](O)C[C@H]2[C@H](O)/C=C/C(=O)O1 [Brefeldin A, reference compound]
effect of B cell supernatants prepared in the presence of Brefeldin A [1]: not able to regulate the migration of T cells
effect of B cell supernatants prepared in the presence of Brefeldin A ([1]; listed as Brefeldin-A): this effect was lost
effect of B cell supernatants prepared in the presence of Brefeldin A ([1]; listed as Brefeldine A): lost

CCCCCCCCCCCCC/C=C/[C@@H](O)[C@@H](N)COP(=O)(O)O [S1P, sphingosine-1-phosphate]
transmigration of B cell depleted PBL pre-treated with S1P ([2]; exogenous S1P 0-100 μM (FIG. 19C)): restores the inhibition of transmigration; also recorded: dose dependently inhibits T cell migration
expression of intermediate (KIM127) and high affinity (antibody 24) sites of LFA-1 on memory T cells (MFI) [3]: down-regulated

c1cc(-c2cnn3cc(-c4ccc(OCCN5CCCCC5)cc4)cnc23)ccn1 [compound C, reference compound]
effect on adiponectin-induced decrease of PBL transmigration ([4]; compound C 10 μg/ml on PBL 30 minutes before adiponectin 15 μg/ml 1 hour): restored to normal, control levels; also recorded: restored to normal control levels; also recorded: ablated
PBL migration in the absence of adiponectin ([4]; compound C alone): did not have any effects

CCCCCCc1cccc(NC(=O)[C@H](N)CCP(=O)(O)O)c1 [W146]
effect on PEPITEM inhibition of lymphocyte transmigration ([2]; W146 10 μM with PEPITEM (FIG. 19B)): releases lymphocytes from the inhibitory effects of PEPITEM
effect on adiponectin inhibition of lymphocyte transmigration ([2]; W146 10 μM, adiponectin 15 μg/ml (FIG. 19A)): releases lymphocytes from the inhibitory effects of Adiponectin

B1: adiponectin (protein)
chain: ETTTQGPGVLLPLPKGACTGWMAGIPGHPGHNGAPGRDGRDGTPGEKGEKGDPGLIGPKGDIGETGVPGAEGPRGFPGIQGRKGEPGEGAYVYRSAFSVGLETYVTIPNMPIRFTKIFYNQQNHYDGSTGKFHCNIPGLYYFAYHITVYMKDVKVSLFKKDKAMLFTYDQYQENNVDQASGSVLLHLEVGDQVWLQVYGEGERNGLYADNDNDSTFTGFLLYHDTN
notes: adipocyte-derived cytokine, used as positive control
inhibition of transmigration of PBL from T1D patients [5]: refractory; also recorded: significantly compromised
inhibition of transmigration of PBL from T1D patients ([5]; listed as Adiponectin): lost
PBL migration in flow based adhesion assay [6]: equally effective
adiponectin inhibition of migration after removal of B cells from PBL [1]: lost
adiponectin inhibition of migration after removal of B cells from PBL ([1]; listed as Adiponectin): completely inhibited this response
adiponectin inhibition of migration after removal of B cells from PBL ([1]; listed as Aq): completely inhibited this response
migration of natural killer cells ([1]; with adiponectin (FIG. 7B)): not affected
EC50, inhibition of PBL transmigration ([4]; adiponectin, static adhesion assay, PBL treated one hour, linear regression (FIG. 1B)): 0.94 µg/mL
EC50 ([4]; adiponectin, static adhesion assay, linear regression (FIG. 13A), read-out: EC50, inhibition of PBL transmigration): ~40 nM
inhibition of PBL transmigration on DMEC ([4]; dermal microvascular endothelium (FIG. 13C)): effective
inhibition of PBL transmigration on HUVEC ([4]; endothelial cells from umbilical cord (FIG. 13C)): effective
inhibition of PBL transmigration on HSEC ([4]; liver sinusoidal endothelial cells (FIG. 13C)): effective
inhibition of PBL transmigration on HSAVEC ([4]; saphenous vein endothelial cells (FIG. 13C)): not
PBL transmigration [4]: significantly and dose dependently reduced; also recorded: dose dependently blocked
PBL transmigration ([4]; listed as Adiponectin): induced a decrease of transmigration
PBL transmigration ([4]; listed as Aq): significantly reduced lymphocyte migration
